Test results reported in US20260167699A1 (Chugai, published 2026).

T1: FcγRIIa(H) extracellular domain, His-tagged (human, UniProt P12318 34-217)
T1 construct: extracellular domain; also called 2aH
T1 sequence: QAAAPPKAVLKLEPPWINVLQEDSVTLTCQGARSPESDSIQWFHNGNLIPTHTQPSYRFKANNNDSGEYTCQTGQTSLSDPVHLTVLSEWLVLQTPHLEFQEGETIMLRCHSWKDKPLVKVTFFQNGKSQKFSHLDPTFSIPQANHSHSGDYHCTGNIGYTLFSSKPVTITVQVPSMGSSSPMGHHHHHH

T2: FcγRIIb extracellular domain, His-tagged (human, UniProt P31994 43-217)
T2 construct: extracellular domain; also called 2b
T2 sequence: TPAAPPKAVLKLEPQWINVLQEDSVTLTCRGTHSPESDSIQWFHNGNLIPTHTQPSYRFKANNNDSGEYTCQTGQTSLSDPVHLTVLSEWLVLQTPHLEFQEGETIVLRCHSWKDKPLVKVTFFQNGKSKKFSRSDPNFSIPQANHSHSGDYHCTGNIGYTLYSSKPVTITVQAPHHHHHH

T3: FcγRIIa(R) extracellular domain, His-tagged (human, UniProt P12318 34-217)
T3 construct: extracellular domain; also called 2aR
T3 sequence: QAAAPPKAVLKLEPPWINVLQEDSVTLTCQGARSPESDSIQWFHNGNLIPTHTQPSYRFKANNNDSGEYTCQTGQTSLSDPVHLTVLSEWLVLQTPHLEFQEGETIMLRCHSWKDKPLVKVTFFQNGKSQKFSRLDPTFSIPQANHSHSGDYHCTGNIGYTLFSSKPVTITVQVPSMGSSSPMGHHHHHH


Assays:
Assay in all cases: SPR, vs GpH7-A5/GpH7-B3/GpL16-k0 =100
[1] = target: T4, FcγRIa extracellular domain, His-tagged (human, UniProt P12314 16-292)
T4 construct: extracellular domain; also called 1a

[2] = target: T1, FcγRIIa(H) extracellular domain, …
[3] = target: T5, FcγRIIIa extracellular domain, His-tagged (human, UniProt P08637 17-208)
T5 construct: extracellular domain; also called 3a

[4] = target: T2, FcγRIIb extracellular domain, His-tagged
[5] = target: T3, FcγRIIa(R) extracellular domain, …

T5 sequence (P08637 other isoform, or with tags, fused parts or gaps): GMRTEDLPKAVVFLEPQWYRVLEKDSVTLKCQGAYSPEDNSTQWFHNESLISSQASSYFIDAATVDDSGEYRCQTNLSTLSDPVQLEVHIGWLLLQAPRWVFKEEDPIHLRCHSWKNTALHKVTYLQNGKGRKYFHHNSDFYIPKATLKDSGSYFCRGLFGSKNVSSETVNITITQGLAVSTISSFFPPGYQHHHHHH
T4 sequence (P12314 other isoform, or with tags, fused parts or gaps): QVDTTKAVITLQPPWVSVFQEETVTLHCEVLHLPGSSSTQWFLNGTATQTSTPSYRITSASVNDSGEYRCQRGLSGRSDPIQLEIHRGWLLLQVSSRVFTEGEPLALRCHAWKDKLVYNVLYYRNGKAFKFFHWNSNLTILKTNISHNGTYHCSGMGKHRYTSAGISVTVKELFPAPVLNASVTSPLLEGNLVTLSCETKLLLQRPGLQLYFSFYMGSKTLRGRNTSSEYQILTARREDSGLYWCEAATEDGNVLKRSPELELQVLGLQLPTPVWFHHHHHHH

Binder	He/Con 1a [1]	He/Con 2aH [2]	He/Con 3a [3]	He/Con 2b [4]	He/Con 2aR [5]
GpH7-A5/GpH7-B3 variant Q295_11K/GpL16-k0 (antibody, human IgG1, kappa) heavy 1: not shown heavy 2: not shown light: DIVMTQSPLSLPVTPGEPASISCQASESLVHSNRNTYLHWYLQKPGQSPQLLIYKVSNRFSGVPDRFSGSGSGTDFTLKISRVEAEDVGVYYCSQNTHVPPTFGQGTKVEIERTVAAPSVFIFPPSDEQLKSGTASVVCLLNNFYPREAKVQWKVDNALQSGNSQESVTEQDSKDSTYSLSSTLTLSKADYEKHKVYACEVTHQGLSSPVTKSFNRGEC	99.7 % of control	102 % of control	81.8 % of control	79 % of control	88.1 % of control
GpH7-A5/GpH7-B3 variant S239_10E/GpL16-k0 (antibody, human IgG1, kappa) heavy 1: not shown heavy 2: not shown light: DIVMTQSPLSLPVTPGEPASISCQASESLVHSNRNTYLHWYLQKPGQSPQLLIYKVSNRFSGVPDRFSGSGSGTDFTLKISRVEAEDVGVYYCSQNTHVPPTFGQGTKVEIERTVAAPSVFIFPPSDEQLKSGTASVVCLLNNFYPREAKVQWKVDNALQSGNSQESVTEQDSKDSTYSLSSTLTLSKADYEKHKVYACEVTHQGLSSPVTKSFNRGEC	108 % of control	108 % of control	171 % of control	183 % of control	127 % of control
GpH7-A5/GpH7-B3 variant Q295_14T/GpL16-k0 (antibody, human IgG1, kappa) heavy 1: not shown heavy 2: not shown light: DIVMTQSPLSLPVTPGEPASISCQASESLVHSNRNTYLHWYLQKPGQSPQLLIYKVSNRFSGVPDRFSGSGSGTDFTLKISRVEAEDVGVYYCSQNTHVPPTFGQGTKVEIERTVAAPSVFIFPPSDEQLKSGTASVVCLLNNFYPREAKVQWKVDNALQSGNSQESVTEQDSKDSTYSLSSTLTLSKADYEKHKVYACEVTHQGLSSPVTKSFNRGEC	101 % of control	86.2 % of control	120 % of control	74.9 % of control	79.2 % of control
GpH7-A5/GpH7-B3 variant S239_01G/GpL16-k0 (antibody, human IgG1, kappa) heavy 1: not shown heavy 2: not shown light: DIVMTQSPLSLPVTPGEPASISCQASESLVHSNRNTYLHWYLQKPGQSPQLLIYKVSNRFSGVPDRFSGSGSGTDFTLKISRVEAEDVGVYYCSQNTHVPPTFGQGTKVEIERTVAAPSVFIFPPSDEQLKSGTASVVCLLNNFYPREAKVQWKVDNALQSGNSQESVTEQDSKDSTYSLSSTLTLSKADYEKHKVYACEVTHQGLSSPVTKSFNRGEC	104 % of control	93.8 % of control	72 % of control	146 % of control	120 % of control
GpH7-A5/GpH7-B3 variant S239_08L/GpL16-k0 (antibody, human IgG1, kappa) heavy 1: not shown heavy 2: not shown light: DIVMTQSPLSLPVTPGEPASISCQASESLVHSNRNTYLHWYLQKPGQSPQLLIYKVSNRFSGVPDRFSGSGSGTDFTLKISRVEAEDVGVYYCSQNTHVPPTFGQGTKVEIERTVAAPSVFIFPPSDEQLKSGTASVVCLLNNFYPREAKVQWKVDNALQSGNSQESVTEQDSKDSTYSLSSTLTLSKADYEKHKVYACEVTHQGLSSPVTKSFNRGEC	103 % of control	101 % of control	90 % of control	142 % of control	114 % of control
GpH7-A5/GpH7-B3 variant S239_09D/GpL16-k0 (antibody, human IgG1, kappa) heavy 1: not shown heavy 2: not shown light: DIVMTQSPLSLPVTPGEPASISCQASESLVHSNRNTYLHWYLQKPGQSPQLLIYKVSNRFSGVPDRFSGSGSGTDFTLKISRVEAEDVGVYYCSQNTHVPPTFGQGTKVEIERTVAAPSVFIFPPSDEQLKSGTASVVCLLNNFYPREAKVQWKVDNALQSGNSQESVTEQDSKDSTYSLSSTLTLSKADYEKHKVYACEVTHQGLSSPVTKSFNRGEC	104 % of control	111 % of control	156 % of control	209 % of control	129 % of control
GpH7-A5/GpH7-B3 variant Q295_15Y/GpL16-k0 (antibody, human IgG1, kappa) heavy 1: not shown heavy 2: not shown light: DIVMTQSPLSLPVTPGEPASISCQASESLVHSNRNTYLHWYLQKPGQSPQLLIYKVSNRFSGVPDRFSGSGSGTDFTLKISRVEAEDVGVYYCSQNTHVPPTFGQGTKVEIERTVAAPSVFIFPPSDEQLKSGTASVVCLLNNFYPREAKVQWKVDNALQSGNSQESVTEQDSKDSTYSLSSTLTLSKADYEKHKVYACEVTHQGLSSPVTKSFNRGEC	100 % of control	89.3 % of control	81.5 % of control	73.3 % of control	82 % of control
GpH7-A5/GpH7-B3 variant S239_06M/GpL16-k0 (antibody, human IgG1, kappa) heavy 1: not shown heavy 2: not shown light: DIVMTQSPLSLPVTPGEPASISCQASESLVHSNRNTYLHWYLQKPGQSPQLLIYKVSNRFSGVPDRFSGSGSGTDFTLKISRVEAEDVGVYYCSQNTHVPPTFGQGTKVEIERTVAAPSVFIFPPSDEQLKSGTASVVCLLNNFYPREAKVQWKVDNALQSGNSQESVTEQDSKDSTYSLSSTLTLSKADYEKHKVYACEVTHQGLSSPVTKSFNRGEC	102 % of control	95.4 % of control	73.9 % of control	102 % of control	94.7 % of control
GpH7-A5/GpH7-B3 variant Q295_12R/GpL16-k0 (antibody, human IgG1, kappa) heavy 1: not shown heavy 2: not shown light: DIVMTQSPLSLPVTPGEPASISCQASESLVHSNRNTYLHWYLQKPGQSPQLLIYKVSNRFSGVPDRFSGSGSGTDFTLKISRVEAEDVGVYYCSQNTHVPPTFGQGTKVEIERTVAAPSVFIFPPSDEQLKSGTASVVCLLNNFYPREAKVQWKVDNALQSGNSQESVTEQDSKDSTYSLSSTLTLSKADYEKHKVYACEVTHQGLSSPVTKSFNRGEC	98.8 % of control	96.4 % of control	73.2 % of control	73.1 % of control	82.2 % of control
GpH7-A5/GpH7-B3 variant S239_03V/GpL16-k0 (antibody, human IgG1, kappa) heavy 1: not shown heavy 2: not shown light: DIVMTQSPLSLPVTPGEPASISCQASESLVHSNRNTYLHWYLQKPGQSPQLLIYKVSNRFSGVPDRFSGSGSGTDFTLKISRVEAEDVGVYYCSQNTHVPPTFGQGTKVEIERTVAAPSVFIFPPSDEQLKSGTASVVCLLNNFYPREAKVQWKVDNALQSGNSQESVTEQDSKDSTYSLSSTLTLSKADYEKHKVYACEVTHQGLSSPVTKSFNRGEC	98.9 % of control	88 % of control	72.4 % of control	110 % of control	94.1 % of control
GpH7-A5/GpH7-B3 variant S239_07I/GpL16-k0 (antibody, human IgG1, kappa) heavy 1: not shown heavy 2: not shown light: DIVMTQSPLSLPVTPGEPASISCQASESLVHSNRNTYLHWYLQKPGQSPQLLIYKVSNRFSGVPDRFSGSGSGTDFTLKISRVEAEDVGVYYCSQNTHVPPTFGQGTKVEIERTVAAPSVFIFPPSDEQLKSGTASVVCLLNNFYPREAKVQWKVDNALQSGNSQESVTEQDSKDSTYSLSSTLTLSKADYEKHKVYACEVTHQGLSSPVTKSFNRGEC	101 % of control	88.5 % of control	75 % of control	108 % of control	95.9 % of control
GpH7-A5/GpH7-B3 variant Q295_16H/GpL16-k0 (antibody, human IgG1, kappa) heavy 1: not shown heavy 2: not shown light: DIVMTQSPLSLPVTPGEPASISCQASESLVHSNRNTYLHWYLQKPGQSPQLLIYKVSNRFSGVPDRFSGSGSGTDFTLKISRVEAEDVGVYYCSQNTHVPPTFGQGTKVEIERTVAAPSVFIFPPSDEQLKSGTASVVCLLNNFYPREAKVQWKVDNALQSGNSQESVTEQDSKDSTYSLSSTLTLSKADYEKHKVYACEVTHQGLSSPVTKSFNRGEC	101 % of control	90.1 % of control	80.2 % of control	70.3 % of control	80.5 % of control
GpH7-A5/GpH7-B3 variant Q295_13S/GpL16-k0 (antibody, human IgG1, kappa) heavy 1: not shown heavy 2: not shown light: DIVMTQSPLSLPVTPGEPASISCQASESLVHSNRNTYLHWYLQKPGQSPQLLIYKVSNRFSGVPDRFSGSGSGTDFTLKISRVEAEDVGVYYCSQNTHVPPTFGQGTKVEIERTVAAPSVFIFPPSDEQLKSGTASVVCLLNNFYPREAKVQWKVDNALQSGNSQESVTEQDSKDSTYSLSSTLTLSKADYEKHKVYACEVTHQGLSSPVTKSFNRGEC	100 % of control	79.5 % of control	90.4 % of control	63.8 % of control	73 % of control
GpH7-A5/GpH7-B3 variant S239_02A/GpL16-k0 (antibody, human IgG1, kappa) heavy 1: not shown heavy 2: not shown light: DIVMTQSPLSLPVTPGEPASISCQASESLVHSNRNTYLHWYLQKPGQSPQLLIYKVSNRFSGVPDRFSGSGSGTDFTLKISRVEAEDVGVYYCSQNTHVPPTFGQGTKVEIERTVAAPSVFIFPPSDEQLKSGTASVVCLLNNFYPREAKVQWKVDNALQSGNSQESVTEQDSKDSTYSLSSTLTLSKADYEKHKVYACEVTHQGLSSPVTKSFNRGEC	103 % of control	89.9 % of control	70.9 % of control	91.6 % of control	89.8 % of control
GpH7-A5/GpH7-B3 variant Q295_18N/GpL16-k0 (antibody, human IgG1, kappa) heavy 1: not shown heavy 2: not shown light: DIVMTQSPLSLPVTPGEPASISCQASESLVHSNRNTYLHWYLQKPGQSPQLLIYKVSNRFSGVPDRFSGSGSGTDFTLKISRVEAEDVGVYYCSQNTHVPPTFGQGTKVEIERTVAAPSVFIFPPSDEQLKSGTASVVCLLNNFYPREAKVQWKVDNALQSGNSQESVTEQDSKDSTYSLSSTLTLSKADYEKHKVYACEVTHQGLSSPVTKSFNRGEC	101 % of control	87.8 % of control	85.7 % of control	72.8 % of control	81.7 % of control
